The experiment deals with Nsp3 ADRP (SARS-CoV-2) (UniProt P0DTD1). The experiment is described as follows: fluorescence polarisation. For orientation: Fluorescence polarisation rises when a labelled molecule tumbles more slowly, as on binding a larger partner.

B1: PARP10_(700–715) (peptide)
peptide: DGGTDGKAQLVVHSA
By Kd is commonly meant the concentration at which binding is half-saturated. Read a low Kd as higher affinity. In turn, B1 showed a Kd of 300 µM.

(Values after paper PMC10499821.)
